According to patent US20220372490A1:
Values belong to the binder of their own block, whether it stands above or below them.

Tests used:
[1] = molecular target: the mutants (p53 mutants in whole cell lysates of SKBR3, MDA-MB-231, MDA-MB-468 and HCC70, as a group); test: cell-based or functional assay
[2] = molecular target: p53WT and the mutants (p53 in whole cell lysates of CAL-51, SKBR3, MDA-MB-231, MDA-MB-468 and HCC70, as a group); test: IP of all p53 with excess antibody, WB of PEPD in the precipitate against input
[3] = molecular target: p53^WT, p53^R175H, p53^R248Q, p53^R273H and p53^R280K (His-tagged recombinant proteins, as a group); test: ELISA, His-tagged recombinant proteins

B1: PEPD in human breast cancer cells (endogenous, in cell lysates, cytosol or nuclear extracts), P12955 2-493 (enzyme, UniProt P12955 2-493, looked up)
chain: AAATGPSFWLGNETLKVPLALFALNRQRLCERLRKNPAVQAGSIVVLQGGEETQRYCTDTGVLFRQESFFHWAFGVTEPGCYGVIDVDTGKSTLFVPRLPASHATWMGKIHSKEHFKEKYAVDDVQYVDEIASVLTSQKPSVLLTLRGVNTDSGSVCREASFDGISKFEVNNTILHPEIVECRVFKTDMELEVLRYTNKISSEAHREVMKAVKVGMKEYELESLFEHYCYSRGGMRHSSYTCICGSGENSAVLHYGHAGAPNDRTIQNGDMCLFDMGGEYYCFASDITCSFPANGKFTADQKAVYEAVLRSSRAVMGAMKPGVWWPDMHRLADRIHLEELAHMGILSGSVDAMVQAHLGAVFMPHGLGHFLGIDVHDVGGYPEGVERIDEPGLRSLRTARHLQPGMVLTVEPGIYFIDHLLDEALADPARASFLNREVLQRFRGFGGVRIEEDVVVTDSGIELLTCVPRTVEEIEACMAGCDKAFTPFSGPK
cells killed by PEPD siRNA after 72 h (trypan blue assay), cells without PEPD^G278D [1]: 65 to 79%

B2: PEPD in human breast cancer cells (endogenous, in cell lysates, cytosol or nuclear extracts) (enzyme, UniProt P12955 2-493, looked up)
chain: AAATGPSFWLGNETLKVPLALFALNRQRLCERLRKNPAVQAGSIVVLQGGEETQRYCTDTGVLFRQESFFHWAFGVTEPGCYGVIDVDTGKSTLFVPRLPASHATWMGKIHSKEHFKEKYAVDDVQYVDEIASVLTSQKPSVLLTLRGVNTDSGSVCREASFDGISKFEVNNTILHPEIVECRVFKTDMELEVLRYTNKISSEAHREVMKAVKVGMKEYELESLFEHYCYSRGGMRHSSYTCICGSGENSAVLHYGHAGAPNDRTIQNGDMCLFDMGGEYYCFASDITCSFPANGKFTADQKAVYEAVLRSSRAVMGAMKPGVWWPDMHRLADRIHLEELAHMGILSGSVDAMVQAHLGAVFMPHGLGHFLGIDVHDVGGYPEGVERIDEPGLRSLRTARHLQPGMVLTVEPGIYFIDHLLDEALADPARASFLNREVLQRFRGFGGVRIEEDVVVTDSGIELLTCVPRTVEEIEACMAGCDKAFTPFSGPK
percent of PEPD that binds to p53 [2]: 6 to 9%

Kd [3]: 145 to 185 nM
B3: His-tagged recombinant human PEPD (prolidase, peptidase D) (enzyme, UniProt P12955 1-493, looked up)
chain: MAAATGPSFWLGNETLKVPLALFALNRQRLCERLRKNPAVQAGSIVVLQGGEETQRYCTDTGVLFRQESFFHWAFGVTEPGCYGVIDVDTGKSTLFVPRLPASHATWMGKIHSKEHFKEKYAVDDVQYVDEIASVLTSQKPSVLLTLRGVNTDSGSVCREASFDGISKFEVNNTILHPEIVECRVFKTDMELEVLRYTNKISSEAHREVMKAVKVGMKEYELESLFEHYCYSRGGMRHSSYTCICGSGENSAVLHYGHAGAPNDRTIQNGDMCLFDMGGEYYCFASDITCSFPANGKFTADQKAVYEAVLRSSRAVMGAMKPGVWWPDMHRLADRIHLEELAHMGILSGSVDAMVQAHLGAVFMPHGLGHFLGIDVHDVGGYPEGVERIDEPGLRSLRTARHLQPGMVLTVEPGIYFIDHLLDEALADPARASFLNREVLQRFRGFGGVRIEEDVVVTDSGIELLTCVPRTVEEIEACMAGCDKAFTPFSGPK
